Paper doi:10.1101/2023.10.08.561411, “Semi-synthetic nanobody-ligand conjugates exhibit tunable signaling properties and enhanced transcriptional outputs at neurokinin receptor-1” (bioRxiv, 2023)
One block for each molecule: values may come before it. Ends that are not written are not given here.

Assays:
[1] = molecular target: epitope-tagged neurokinin-1 receptor (NK1R) with three epitope tags (alfa, 6e, BC2) inserted into the extracellular N-terminus (UniProt P25103)
[2] = molecular target: epitope-tagged neurokinin-1 receptor (NK1R) with three epitope tags (alfa, 6e, BC2) inserted into the extracellular N-terminus (UniProt P25103); remark: listed apart in the source
[3] = molecular target: epitope-tagged neurokinin-1 receptor (NK1R) with three epitope tags (alfa, 6e, BC2) inserted into the extracellular N-terminus (UniProt P25103); remark: listed apart in the source
[4] = molecular target: epitope-tagged neurokinin-1 receptor (NK1R) with three epitope tags (alfa, 6e, BC2) inserted into the extracellular N-terminus (UniProt P25103); remark: listed apart in the source
[5] = molecular target: T1, neurokinin-1 receptor wild-type, lacking epitope tags (Homo sapiens, UniProt P25103); assay: flow cytometry on cells; live HEK293 cells expressing the receptor, on ice 20 min in PBS with 2% BSA with biotin-functionalized nanobodies (0.1 pM – 1 μM); detected with APC-streptavidin; median fluorescence intensity; details: one partner purified
T1 construct: also called NK1R WT; NK1R wild-type; source: HEK293, stably transfected clonal line, on live cells
T1 sequence (P25103 whole entry): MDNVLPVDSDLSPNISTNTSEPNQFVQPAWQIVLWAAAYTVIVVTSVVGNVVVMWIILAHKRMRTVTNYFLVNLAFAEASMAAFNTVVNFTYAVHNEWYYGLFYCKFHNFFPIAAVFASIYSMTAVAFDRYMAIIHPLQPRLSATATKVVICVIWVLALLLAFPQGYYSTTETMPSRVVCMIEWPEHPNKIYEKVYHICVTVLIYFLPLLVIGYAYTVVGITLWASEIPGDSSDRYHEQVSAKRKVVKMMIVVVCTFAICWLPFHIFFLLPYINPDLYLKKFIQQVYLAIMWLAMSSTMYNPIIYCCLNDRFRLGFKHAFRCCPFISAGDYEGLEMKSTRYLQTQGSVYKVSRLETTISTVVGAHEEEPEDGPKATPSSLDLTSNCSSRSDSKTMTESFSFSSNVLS

Gq activation (TRUPATH BRET), full efficacy; reduction in potency (EC50) relative to the comparator peptide [1]: < 6 fold
Molecule: NbGFP-NKA conjugate (negative control)

Gq activation (TRUPATH BRET), full efficacy; reduction in potency (EC50) relative to the comparator peptide G3SP (6–11) [1]: > 60 fold
Gq activation (TRUPATH BRET); difference in EC50 relative to SP (6–11) [1]: < 4 fold
Molecule: NbGFP-SP_(6–11) conjugate (negative control)

Gq activation (TRUPATH BRET), full efficacy; reduction in potency (EC50) relative to the comparator peptide [1]: < 6 fold
Gq-mediated transcriptional output (luciferase reporter, 35 nM, 17 hours), fold against G3NKA [2]: > 2 fold
Gs-mediated transcription (luciferase reporter, 35 nM, 17 hours), fold against NKA [3]: > 5 fold
Molecule: Nb_(alfa)-NKA conjugate

Gq activation (TRUPATH BRET), full efficacy; reduction in potency (EC50) relative to the comparator peptide G3SP (6–11) [1]: > 60 fold
Gq activation (TRUPATH BRET); difference in EC50 relative to SP (6–11) [1]: < 4 fold
Molecule: Nb_(alfa)-SP_(6–11) conjugate

signaling through the Gq pathway (TRUPATH BRET), EC50 [4]: 27.5 nM
Molecule: SP_(6–11), truncated version of Substance P (peptide)

binding result [5]: no binding (tested: 1 μM)
B1: Nb6e, biotin-labeled (VHH)
VHH: QVQLQESGGGLVQPGGSLRLSCAASGFVFENSAMAWYRQAPGKERELIAVIGTTFIKLAESVKGRFTISRDNAKSTVYLQMNNLKPEDTAVYYCSKSGAYWGQGTQVTVSS
notes: sortase A recognition motif at the C-terminus (LPETGG in the methods); if by sortagging, the His tag would be lost; source: E. coli BL21(DE3), purified (nickel-NTA, size exclusion chromatography)

binding result [5]: no binding (tested: 1 μM)
B2: NbBC2, biotin-labeled (VHH)
VHH: QVQLVESGGGLVQPGGSLTLSCTASGFTLDHYDIGWFRQAPGKEREGVSCINNSDDDTYYADSVKGRFTIFMNNAKDTVYLQMNSLKPEDTAIYYCAEARGCKRGRYEYDFWGQGTQVTVSS
notes: as for B1

signaling through the Gq pathway (TRUPATH BRET), EC50 [4]: 0.3 nM
Molecule: GGGQFFGLM-NH2 [G3SP_(6–11), SP_(6–11) with an N-terminal triglycine extension]

binding result [5]: no binding (tested: 1 μM)
B3: Nb_(alfa), biotin-labeled (VHH)
VHH: EVQLQESGGGLVQPGGSLRLSCTASGVTISALNAMAMGWYRQAPGERRVMVAAVSERGNAMYRESVQGRFTVTRDFTNKMVSLQMDNLKPEDTAVYYCHVLEDRVDSFHDYWGQGTQVTVSS
notes: as for B1

binding result [5]: no binding (tested: 1 μM)
B4: NbGFP, biotin-labeled (negative control nanobody that targets GFP) (VHH)
VHH: QVQLQESGGALVQPGGSLRLSCAASGFPVNRYSMRWYRQAPGKEREWVAGMSSAGDRSSYEDSVKGRFTISRDDARNTVYLQMNSLKPEDTAVYYCNVNVGFEYWGQGTQVTVSS
notes: nanobody NbGFP against GFP; sortase A recognition motif at the C-terminus (LPETGG in the methods); if by sortagging, the His tag would be lost; source: E. coli BL21(DE3), purified (nickel-NTA, size exclusion chromatography)
